Test results reported in publication PMC11953334, “Substrates bind to residues lining the ring of asymmetrically engaged bacterial proteasome activator Bpa” (Nature Communications, 2025).

Tests used:
[1] = target: full-length 20S proteasome core particle, β-subunit T1A inactive variant (M. tuberculosis H37Rv) (UniProt P9WHU1); assay: cryo-EM structure
[2] = target: full-length 20S proteasome core particle, β-subunit T1A inactive variant (M. tuberculosis H37Rv) (UniProt P9WHU1); assay: negative stain EM

Substance	percent of core particles capped by Bpa on both ends [1] [%]	percent of proteasomes doubly capped [2] [%]	percent of proteasomes not associated with Bpa [2] [%]	percent of proteasomes singly capped [2] [%]	percent of proteasomes uncapped [2] [%]
bacterial proteasome activator Bpa, full-length, wild-type (from UniProt P9WKX3 1-174) (natural protein)	> 90	> 80	< 1		
covalent dimer of C-terminally truncated Bpa and full-length Bpa (BpaΔC-Bpa) (from UniProt P9WKX3)				27	73
